{"source": "paper PMC2885556", "biological_target": "wild-type E. coli ClpX (E. coli) (UniProt P0A6H1)", "sequence (P0A6H1 whole entry)": "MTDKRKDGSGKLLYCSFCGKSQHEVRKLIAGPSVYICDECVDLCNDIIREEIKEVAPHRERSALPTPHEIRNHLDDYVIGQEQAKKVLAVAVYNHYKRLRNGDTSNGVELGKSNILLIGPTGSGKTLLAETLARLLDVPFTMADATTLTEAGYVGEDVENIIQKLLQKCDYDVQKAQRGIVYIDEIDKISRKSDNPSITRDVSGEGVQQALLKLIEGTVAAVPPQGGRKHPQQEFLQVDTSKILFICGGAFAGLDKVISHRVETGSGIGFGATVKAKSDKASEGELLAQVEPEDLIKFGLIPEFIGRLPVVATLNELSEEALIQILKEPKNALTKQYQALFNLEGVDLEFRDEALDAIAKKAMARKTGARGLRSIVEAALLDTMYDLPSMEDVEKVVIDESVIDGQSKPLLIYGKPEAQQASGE", "data": [{"substance": "wild-type E. coli ClpP with a C-terminal His6 tag (from UniProt P0A6G7 15-207) (enzyme)", "values": [{"measurement": "rate of decapeptide cleavage by ClpP with ClpX•ATPγS, against ClpP alone", "result": 9, "unit": "fold"}]}]}
